Patent US20210388087A1 (Chugai, published 2021)
Where a chain is given by its changes, count along the chain named.

T1: cyno CD137 (cynomolgus monkey, UniProt Q07011 24-186 (human entry), limits assumed)
T1 construct: also called cynomolgus monkey CD137
T1 chain: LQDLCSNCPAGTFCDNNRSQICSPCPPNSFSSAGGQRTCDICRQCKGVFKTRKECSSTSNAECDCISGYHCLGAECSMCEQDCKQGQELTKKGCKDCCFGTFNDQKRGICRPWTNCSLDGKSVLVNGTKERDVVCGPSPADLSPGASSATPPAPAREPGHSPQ

B1: dBBDu197 (antibody, V domains shown)
VH: QVQLVESGGGLVQPGRSLRLSCAASGFTFSNAWMHWVRQAPGKGLEWVAQIKDRSNAYAAYYAPSVKGRFTISRDDSKNSIYLQMNSLKTEDTAVYYCHYVHYASASTVLPAFGVDAWGQGTTVTVSS
VL: DIVMTQSPLSLPVTPGEPASISCRSSQSLVHSNRNTYLHWYQQKPGQAPRLLIYKVSNRFSGVPDRFSGSGSGTDFTLKISRVEAEDVGVYYCGQGTQVPYTFGQGTKLEIK
notes: Human IgG1; light chain GLS3000 (kappa)
B2: dBBDu167 (antibody, V domains shown)
VH: B1 VH with R54K, S55G, A57L, S107G, T108G, V109G, A112G
VL: B1 VL
notes: as for B1
B3: dBBDu173 (antibody, V domains shown)
VH: B1 VH with R54K, S55G, A57L, S107G, T108G, V109G, P111S, F113Y
VL: B1 VL
notes: as for B1
B4: dBBDu179 (antibody, V domains shown)
VH: B1 VH with A57Q, A60T
VL: B1 VL
notes: as for B1
B5: dBBDu183 (antibody, V domains shown)
VH: B1 VH with R54K, S55G
VL: B1 VL
notes: Human IgG1; light chain GLS3000 (kappa), before light chain maturation
B6: dBBDu186 (antibody, V domains shown)
VH: B1 VH with A57Q, A60T, S105Q
VL: B1 VL
notes: as for B1
B7: dBBDu189 (antibody, V domains shown)
VH: B1 VH with V48I, A57Q, A60T, S105Q, T108S, V109L, A112S
VL: B1 VL
notes: as for B1
B8: dBBDu186/L096 (antibody, V domains shown)
VH: B1 VH with A57Q, A60T, S105Q
VL: B1 VL with S25T, S28E, S32I, N35Y, T36I, Y37F, S57Y, S61Q, G94A, Q98S
notes: IgG format; constant regions not specified
B9: dBBDu183/L063 (antibody, V domains shown)
VH: B1 VH with R54K, S55G
VL: B1 VL with S28E, S32T, N35H, S61P, G94A, Y101F
notes: as for B8
B10: dBBDu183/L067 (antibody, V domains shown)
VH: B1 VH with R54K, S55G
VL: B1 VL with R24Q, Q27E, S32V, N35H, S57Y, S61P, G94A, Q98S, Y101F
notes: as for B8
B11: dBBDu183/L072 (antibody, V domains shown)
VH: B1 VH with R54K, S55G
VL: B1 VL with R24Q, S25A, S28E, S32M, S61P, G94A, Q98S, Y101F
notes: IgG format; also called H183L072
B12: dBBDu189/L116 (antibody, V domains shown)
VH: B1 VH with V48I, A57Q, A60T, S105Q, T108S, V109L, A112S
VL: B1 VL with R24S, S28E, S32A, N35Q, T36I, S57A, S61P, G94A, Y101F
notes: as for B8
B13: dBBDu189/L112 (antibody, V domains shown)
VH: B1 VH with V48I, A57Q, A60T, S105Q, T108S, V109L, A112S
VL: B1 VL with R24T, S26D, S28E, S32M, N35H, S57Y, S61P, G94A, Q98S, Y101F
notes: as for B8

Target: T2, human CD137-Fc (human, biotin-labeled)
T2 construct: if 90 already holds the Fc, drop the second piece; also called biotin-labeled human CD137 fused to human IgG1 Fc fragment; biotin-human CD137-Fc; not shown: human IgG1 Fc fragment
Experiment: bead ELISA on biotin-human CD137-Fc with 125 pmol/well free CD3e peptide as competitor;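 note: Streptavidin-coated magnetic beads in blocking buffer as the capture surface, well signal read as fluorescence 2 min after adding APS-5 substrate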

First: B1
Second: B2
The ELISA signal of the first is higher: 2110 for the first, 1940 for the second.

Compared with B3, B4 is higher in ELISA signal: 2040 for the first, 2620 for the second.

First: B5
Second: B6
The ELISA signal of the first is lower: 2370 for the first, 2500 for the second.

B7 gave an ELISA signal of 2190.

Target: T2, human CD137-Fc
Experiment: bead ELISA on biotin-human CD137-Fc, 0 pmol free CD3e peptide

Compared with B1, B2 is lower in ELISA signal: 54400 for the first, 25700 for the second.

First: B3
Second: B4
The ELISA signal of the first is lower: 6540 for the first, 61000 for the second.

Compared with B5, B6 is higher in ELISA signal: 34000 for the first, 34800 for the second.

In the case of B7, the ELISA signal is reported as 27400.

Target: T1, cyno CD137
Experiment: SPR Biacore T200, IgG captured on protein A, 25 C;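 note: antigens diluted in ACES running buffer at pH 7.4 were flowed over antibodies held on a CM3 chip bearing amine-coupled protein A, with buffer alone serving as blank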

Compared with B8, B9 is 66-fold lower in Kd: 205 µM for the first, 3.12 µM for the second.

B10 and B11 are within 1.5-fold of each other in Kd: 6.2 µM for the first, 4.87 µM for the second.

First: B12
Second: B13
The Kd of the first is 1.9-fold higher: 11.1 µM for the first, 5.76 µM for the second. The second binds more tightly here.

First: B8
Second: B9
The koff of the first is 2-fold lower: 0.00223 s⁻¹ for the first, 0.00457 s⁻¹ for the second.

B10 and B11 are within 1.5-fold of each other in koff: 0.00813 s⁻¹ for the first, 0.00593 s⁻¹ for the second.

First: B12
Second: B13
The koff of the first is 3.5-fold lower: 0.00823 s⁻¹ for the first, 0.0286 s⁻¹ for the second.

B9 and B10 are within 1.5-fold of each other in kon: 1470 M⁻¹ s⁻¹ for the first, 1310 M⁻¹ s⁻¹ for the second.

First: B11
Second: B12
The kon of the first is 1.6-fold higher: 1220 M⁻¹ s⁻¹ for the first, 744 M⁻¹ s⁻¹ for the second.

Binder B13 has a kon of 4980 M⁻¹ s⁻¹.

Target: human CD3 ed (human, UniProt P07766 23-126; P04234 22-105, limits assumed)
Experiment: SPR Biacore T200, IgG captured on protein A, 25 C;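 note: antigens diluted in ACES running buffer at pH 7.4 were flowed over antibodies held on a CM3 chip bearing amine-coupled protein A, with buffer alone serving as blank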

Compared with B8, B9 is 33-fold lower in Kd: 9.11 µM for the first, 0.276 µM for the second. The second binds more tightly here.

B10 and B11 are the same in Kd: 0.217 µM for the first, 0.217 µM for the second.

Compared with B12, B13 is 1.6-fold higher in Kd: 0.209 µM for the first, 0.331 µM for the second. The first binds more tightly here.

Compared with B8, B9 is 6.5-fold lower in koff: 0.102 s⁻¹ for the first, 0.0157 s⁻¹ for the second.

Going from B10 to B11, the koff falls from 0.0193 s⁻¹ to 0.00785 s⁻¹ (2.5-fold).

Going from B12 to B13, the koff rises from 0.00434 s⁻¹ to 0.01 s⁻¹ (2.3-fold).

Compared with B8, B9 is 5.1-fold higher in kon: 11200 M⁻¹ s⁻¹ for the first, 56900 M⁻¹ s⁻¹ for the second.

First: B10
Second: B11
The kon of the first is 2.5-fold higher: 88900 M⁻¹ s⁻¹ for the first, 36100 M⁻¹ s⁻¹ for the second.

B12 and B13 are within 1.5-fold of each other in kon: 20800 M⁻¹ s⁻¹ for the first, 30300 M⁻¹ s⁻¹ for the second.

Target: T2, human CD137-Fc
Experiment: bead ELISA on biotin-human CD137-Fc, 125 vs 0 pmol free CD3e peptide;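 note: target captured on streptavidin-coated magnetic beads, signal read as fluorescence 2 min after adding APS-5 substrate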

Going from B1 to B2, the Signal decrease falls from 96.1% to 92.5%.

First: B3
Second: B4
The Signal decrease of the first is lower: 68.8% for the first, 95.7% for the second.

Compared with B5, B6 is lower in Signal decrease: 93% for the first, 92.8% for the second.

B7 gave a Signal decrease of 92%.
